# Patent US9933424 (SEOUL NATIONAL UNIVERSITY HOSPITAL, dated 2018)
# B1: mFc-human resistin fusion protein (mouse Fc region of immunoglobulin fused to the N-terminus of human resistin) (Fc fusion, UniProt Q9HD89 19-108, looked up)
# chain: KTLCSMEEAINERIQEVAGSLIFRAISSIGLECQSVTSRGDLATCPRGFAVTGCTCGSACGSWDVRAETTCHCQCAGMDWTGARCCRVQP
# notes: Expressed in HEK293-F cells from pcDNA3.1 and purified on mFc-specific beads; also called mFc-human resistin protein; mFc human resistin recombinant protein; not shown: mouse immunoglobulin Fc region (mFc); prot
# B2: recombinant human resistin protein (ligand, UniProt Q9HD89 19-108, looked up)
# chain: B1 chain
# notes: also called rhResistin; human recombinant resistin
# Columns and labels:
# [1] = target: T1, adenylyl cyclase-associated protein 1 (CAP1), human, of THP-1 cells (human, UniProt Q01518 2-475); test: western blot of cell lysates probed with mFc-human resistin as primary antibody, anti-mFc-HRP detection
# T1 construct: Endogenous full-length protein in THP-1 lysates or on THP-1 cells; also called human resistin receptor; 55 kDa protein
# T1 sequence (Q01518 2-475 limits assumed): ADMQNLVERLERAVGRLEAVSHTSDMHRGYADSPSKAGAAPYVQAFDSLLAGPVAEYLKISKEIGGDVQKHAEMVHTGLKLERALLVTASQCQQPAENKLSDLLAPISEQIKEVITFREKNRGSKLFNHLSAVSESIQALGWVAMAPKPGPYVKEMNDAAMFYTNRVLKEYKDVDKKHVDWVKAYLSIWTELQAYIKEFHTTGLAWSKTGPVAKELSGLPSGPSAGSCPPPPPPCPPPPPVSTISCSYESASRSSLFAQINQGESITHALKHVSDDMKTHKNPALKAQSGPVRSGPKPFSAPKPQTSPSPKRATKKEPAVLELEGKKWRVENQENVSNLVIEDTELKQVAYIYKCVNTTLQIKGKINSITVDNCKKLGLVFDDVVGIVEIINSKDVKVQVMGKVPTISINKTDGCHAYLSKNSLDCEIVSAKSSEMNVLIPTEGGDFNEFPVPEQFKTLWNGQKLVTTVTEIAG
# [2] = target: T1, adenylyl cyclase-associated protein 1 …; test: conclusion of Example 4 (western blot, immunofluorescence, flow cytometry on THP-1 cells)
Binder,binding result [1],binding result [2]
B1,binds,
B2,,binds
